Among the data in paper PMC2358973, “A Cysteine Protease Is Critical for Babesia spp. Transmission in Haemaphysalis Ticks” (PLoS Pathogens, 2008) are Km, kcat and kcat/Km values, retold here.

The subject of data set [1] is T1, Cc1cc(=O)oc2cc(NC(=O)[C@H](CCCNC(=N)N)NC(=O)[C@H](CCCNC(=N)N)NC(=O)OCc3ccccc3)ccc12.
T1 construct: partial coding region (pPICZC) expressed in Pichia pastoris GS115, HiTrap chelating column purified; precursor 341 residues with 17-residue signal peptide
Description: fluorogenic hydrolysis assay, Michaelis-Menten fit. In kind it is biochemical, Haemaphysalis longicornis. Particulars: 25 mM citric acid/sodium phosphate, pH 6.0, 5 mM DTT. The source says:
(§1) fluorogenic hydrolysis assay, Michaelis-Menten fit on longipain

Data set [2] concerns T2, Cc1cc(=O)oc2cc(NC(=O)[C@H](CCCNC(=N)N)NC(=O)[C@H](Cc3ccccc3)NC(=O)OCc3ccccc3)ccc12.
T2 construct: partial coding region (pPICZC) expressed in Pichia pastoris GS115, HiTrap chelating column purified; precursor 341 residues with 17-residue signal peptide
Description: fluorogenic hydrolysis assay, Michaelis-Menten fit. The note with it: 25 mM citric acid/sodium phosphate, pH 6.0, 5 mM DTT. In kind it is biochemical, Haemaphysalis longicornis.
From the text: as §1

Consider longipain (Haemaphysalis longicornis), for which, in data set [1], the Km is 16.0 ± 0.2 µM, the kcat came out at 800 s⁻¹ and the kcat/Km amounted to 5e+07 M⁻¹ s⁻¹. In data set [2], the Km amounted to 12.1 ± 0.08 µM, the kcat worked out at 550 s⁻¹ and the kcat/Km is 4.5e+07 M⁻¹ s⁻¹.
